Experimental data reported in article PMC11035111, “Angiotension II directly bind P2X7 receptor to induce myocardial ferroptosis and remodeling by activating human antigen R” (Redox Biology, 2024).

Molecular target: T1, biotinylated angiotensin II (biotin (position not given))
T1 construct: angiotensin II, the peptide hormone cut from angiotensinogen; Held by its biotin on the SA chip (BLI) or on streptavidin beads (pull-down); also called Bio-Ang II; bio-Ang II; source: bought: created by Beijing Fanbo Biological Chemical Co., Ltd
Test: BLI; Octet R8; biotinylated Ang II (1 ug/ml in 1x PBS) captured on an SA chip to a signal of 0.8 nm; P2X7R protein in SD buffer at 1, 0.5, 0.25 and 0.0625 uM
Conditions: both partners purified

- Kd: 9.63 nM
B1: purified P2X7R protein (extracellular domain) (domain or fragment)
chain: SDKLYQRKEPLISSVHTKVKGVAEVTENVTEGGVTKLVHGIFDTADYTLPLQGNSFFVMTNYLKSEGQEQKLCPEYPSRGKQCHSDQGCIKGWMDPQSKGIQTGRCIPYDQKRKTCEIFAWCPAEEGKEAPRPALLRSAENFTVLIKNNIDFPGHNYTTRNILPGMNISCTFHKTWNPQCPIFRLGDIFQEIGENFTEVAVQGGIMGIEIYWDCNLDSWSHRCQPKYSFRRLDDKYTNESLFPGYNFRYAKYYKENGMEKRTLIKAFGVRFDILVFGTGGKF
